Results reported in PMC3031564, “Tartronate Semialdehyde Reductase Defines a Novel Rate-Limiting Step in Assimilation and Bioconversion of Glycerol in Ustilago maydis” (PLoS ONE, 2011).

Experiments:
Experiment in all cases: purified protein
Type in all cases: biochemical, Mycosarcoma maydis
O=C(O)[C@H](O)CO = details: oxidation, 40°C, assay buffer 50 mM glycine pH 8.5, cofactor not stated for this row, pH 8.5
[1] = system: NC(=O)C1=CN([C@@H]2O[C@H](COP(=O)(O)OP(=O)(O)OC[C@H]3O[C@@H](n4cnc5c(N)ncnc54)[C@H](O)[C@@H]3O)[C@@H](O)[C@H]2O)C=CC1; details: reduction, co-substrate tartronic semialdehyde, 40°C, varied: cofactor
[2] = system: NC(=O)c1ccc[n+]([C@@H]2O[C@H](COP(=O)(O)OP(=O)(O)OC[C@H]3O[C@@H](n4cnc5c(N)ncnc54)[C@H](OP(=O)(O)O)[C@@H]3O)[C@@H](O)[C@H]2O)c1; details: oxidation, co-substrate D-glycerate, 40°C, assay buffer 50 mM glycine pH 8.5, pH 8.5, varied: cofactor
O=CC(O)C(=O)O = details: reduction, cofactor NADH, 40°C, substrate made by enolization of lithium hydroxypyruvate (about 50% conversion, quantified by HPLC)

Substance: rTsr1 (Um02592, tartronate semialdehyde reductase) (Mycosarcoma maydis; E78D)
- Km (O=C(O)[C@H](O)CO): 17700 ± 2300 µM
- Vmax (O=C(O)[C@H](O)CO): 1.14 µmol/min/mg
- Km [1]: 14.29 ± 3.1 µM
- Vmax [1]: 5.07 µmol/min/mg
- Km [2]: 0.30 ± 0.04 µM
- Vmax [2]: 0.93 µmol/min/mg
- Km (O=CC(O)C(=O)O): 190 ± 30 µM
- Vmax (O=CC(O)C(=O)O): 0.17 µmol/min/mg
